Data taken from patent publication US20240376224A1 (University of California, published 2024).

Experiments:
[1] = molecular target: T1, mouse c-CDCP1 (recombinant cleaved mouse CDCP1) (mouse, UniProt Q5U462 30-368; Q5U462 369-666, limits assumed); test: BLI (Octet), table of binding affinities to mCDCP1
T1 construct: Mouse antigens made were c-CDCP1-Fc (Cut 1) and (Cut 2); also called mouse cleaved CDCP1; cleaved mCDCP1
T1 sequence 1: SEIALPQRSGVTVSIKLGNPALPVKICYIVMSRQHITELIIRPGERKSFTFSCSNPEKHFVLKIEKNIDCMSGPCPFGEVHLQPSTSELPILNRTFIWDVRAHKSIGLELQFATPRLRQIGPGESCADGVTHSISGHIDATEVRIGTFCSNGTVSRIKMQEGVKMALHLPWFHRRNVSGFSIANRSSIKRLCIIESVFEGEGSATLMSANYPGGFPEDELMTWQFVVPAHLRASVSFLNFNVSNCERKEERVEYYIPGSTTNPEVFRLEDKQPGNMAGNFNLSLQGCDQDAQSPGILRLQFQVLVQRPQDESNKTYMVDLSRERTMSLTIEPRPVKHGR
T1 sequence 2: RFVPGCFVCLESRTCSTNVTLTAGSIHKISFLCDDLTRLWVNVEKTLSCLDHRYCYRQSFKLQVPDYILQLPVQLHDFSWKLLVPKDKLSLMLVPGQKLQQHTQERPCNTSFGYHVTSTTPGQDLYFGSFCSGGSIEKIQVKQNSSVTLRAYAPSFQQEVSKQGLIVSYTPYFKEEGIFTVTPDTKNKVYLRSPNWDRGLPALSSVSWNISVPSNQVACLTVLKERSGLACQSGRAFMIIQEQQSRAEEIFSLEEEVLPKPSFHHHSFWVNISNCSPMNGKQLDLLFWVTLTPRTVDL

[2] = molecular target: T2, mouse c-CDCP1 on Fc1245 cells (mouse) (UniProt Q5U462); test: flow cytometry on Fc1245 c-CDCP1 cells (FIG. 9B); FIG. 9B
T2 sequence 1: T1 sequence 1
T2 sequence 2: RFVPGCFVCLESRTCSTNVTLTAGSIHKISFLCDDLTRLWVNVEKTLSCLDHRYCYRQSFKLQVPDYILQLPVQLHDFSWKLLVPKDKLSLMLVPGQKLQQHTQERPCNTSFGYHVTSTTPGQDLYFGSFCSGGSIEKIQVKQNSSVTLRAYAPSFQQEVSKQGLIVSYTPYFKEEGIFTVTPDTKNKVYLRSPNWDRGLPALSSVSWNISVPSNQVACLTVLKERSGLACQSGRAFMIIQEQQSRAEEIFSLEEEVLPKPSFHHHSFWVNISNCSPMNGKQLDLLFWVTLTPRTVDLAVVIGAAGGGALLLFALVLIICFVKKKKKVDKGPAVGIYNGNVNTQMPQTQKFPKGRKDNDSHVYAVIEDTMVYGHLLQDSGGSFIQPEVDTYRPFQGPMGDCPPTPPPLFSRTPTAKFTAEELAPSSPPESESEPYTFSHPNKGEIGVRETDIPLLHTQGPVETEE

[3] = molecular target: T3, c-CDCP1 Cut 3 N-terminal fragment (NTF) (human, UniProt Q9H5V8 30-369); test: co-transfection of NTF and CTF plasmids (Cut 3), Ni-NTA co-purification
T3 construct: also called NTF (Cut 3)
T3 sequence: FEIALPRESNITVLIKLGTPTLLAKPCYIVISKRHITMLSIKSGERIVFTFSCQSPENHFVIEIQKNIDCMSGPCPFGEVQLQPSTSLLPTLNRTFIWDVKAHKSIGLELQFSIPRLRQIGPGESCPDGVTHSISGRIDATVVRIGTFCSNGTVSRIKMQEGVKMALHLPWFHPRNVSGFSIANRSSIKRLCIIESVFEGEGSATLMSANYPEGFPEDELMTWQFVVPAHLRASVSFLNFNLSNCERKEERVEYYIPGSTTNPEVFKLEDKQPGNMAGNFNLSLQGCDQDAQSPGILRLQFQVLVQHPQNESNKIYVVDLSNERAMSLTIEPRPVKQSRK
Excerpt: (§1) In the present example, CDCP1 antigen with endogenous cut sites was generated. Generation of the CDCP1 antigen proceeded by co-transfection of the two fragments on separate plasmids. One set of plasmids encoding the NTF of CDCP1, ending after the PI residue of the 3 different cut sites, was designed; and a second set of plasmids encoding the C-terminal ectodomain of CDCP1 starting at the P1′ residue of the 3 different cut sites (c-CDCP1 Cut 1, Cut 2, Cut 3), was designed (FIG. 3A). Uncleaved CDCP1 ectodomain was generated with a single plasmid encoding the entire ectodomain (fl-CDCP1). Following co-transfection of pairs of NTF and CTF plasmids, an intact cleaved CDCP1 complex was purified by Ni-NTA affinity chromatography for all of the NTF+CTF cut variants (FIG. 3B). In parallel, fl-CDCP1 and c-CDCP1 ectodomains fused to an Fc domain were generated for use in phage selection, using the same co-transfection strategy (FIG. 3H-FIG. 3L). Three pairs of NTF and CTF-Fc plasmids were made that ends or starts at the 3 different cut sites of cleaved CDCP1. An SDS-PAGE gel of fl-CDCP1-Fc and c-CDCP1-Fc (Cut 1, Cut 2, Cut 3) was run (FIG. 3I).

[4] = molecular target: T4, c-CDCP1 Cut 2 N-terminal fragment (NTF) (human, UniProt Q9H5V8 30-368); test: co-transfection of NTF and CTF plasmids (Cut 2), Ni-NTA co-purification
T4 construct: also called NTF (Cut 2)
T4 sequence: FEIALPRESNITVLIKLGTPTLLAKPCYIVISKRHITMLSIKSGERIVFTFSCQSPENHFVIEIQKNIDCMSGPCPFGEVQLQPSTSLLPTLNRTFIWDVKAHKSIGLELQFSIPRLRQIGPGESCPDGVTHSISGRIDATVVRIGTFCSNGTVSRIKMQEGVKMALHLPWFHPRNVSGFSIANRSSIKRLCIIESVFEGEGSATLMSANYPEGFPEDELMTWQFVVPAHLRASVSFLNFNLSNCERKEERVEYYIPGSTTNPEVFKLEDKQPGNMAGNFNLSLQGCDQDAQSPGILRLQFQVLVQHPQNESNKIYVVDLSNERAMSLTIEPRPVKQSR
Excerpt: as §1

c-CDCP1-Fc (Cut 2) = molecular target: T5, c-CDCP1-Fc (Cut 2) (human, UniProt Q9H5V8 30-368; Q9H5V8 369-667); test: BLI (Octet RED384) on c-CDCP1-Fc (Cut2); antibody concentration not given
T5 construct: Co-transfection of NTF and CTF-Fc plasmids; not shown: Fc domain
T5 sequence 1: T4 sequence
T5 sequence 2: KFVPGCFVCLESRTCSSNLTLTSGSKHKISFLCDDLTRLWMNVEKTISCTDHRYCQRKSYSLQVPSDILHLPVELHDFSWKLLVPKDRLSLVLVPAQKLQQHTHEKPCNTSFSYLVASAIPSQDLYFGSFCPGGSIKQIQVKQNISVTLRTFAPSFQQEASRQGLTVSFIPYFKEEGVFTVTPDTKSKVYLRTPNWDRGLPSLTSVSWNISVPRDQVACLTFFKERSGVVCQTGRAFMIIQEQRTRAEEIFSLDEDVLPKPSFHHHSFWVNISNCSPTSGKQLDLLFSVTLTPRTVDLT
Experimental: BLI experiments were performed using an Octet RED384 instrument (ForteBio). Biotinylated proteins were immobilized on a streptavidin (SA) biosensor and His-tagged proteins were immobilized on a Ni-NTA biosensor. Different concentrations of analyte in PBS pH 7.4+0.05% Tween-20+0.2% BSA (PBSTB) were used as analyte. Affinities (KDS) were calculated from a global fit (1:1) of the data using the Octet RED384 software.
Furthermore, variants of CL03 were evaluated for binding to c-CDCP1-Fc (Cut2) by BLI assays using an Octet RED384 instrument (ForteBio) (FIG. 16A) using a procedure as generally described in Example 1. The variants also were evaluated by SEC-based analysis (FIG. 16B) as generally described in Example 1. The variants evaluated by BLI assays and SEC-based analysis included the variants referred to as IgG87, IgG89, IgG94, IgG97, IgG101 (CL03 IgG H1-NtoD H3-MtoA), and IgG102.

[5] = molecular target: T6, c-CDCP1 Cut 1 N-terminal fragment (NTF) (human, UniProt Q9H5V8 30-365); test: co-transfection of NTF and CTF plasmids (Cut 1), Ni-NTA co-purification
T6 construct: also called NTF (Cut 1)
T6 sequence: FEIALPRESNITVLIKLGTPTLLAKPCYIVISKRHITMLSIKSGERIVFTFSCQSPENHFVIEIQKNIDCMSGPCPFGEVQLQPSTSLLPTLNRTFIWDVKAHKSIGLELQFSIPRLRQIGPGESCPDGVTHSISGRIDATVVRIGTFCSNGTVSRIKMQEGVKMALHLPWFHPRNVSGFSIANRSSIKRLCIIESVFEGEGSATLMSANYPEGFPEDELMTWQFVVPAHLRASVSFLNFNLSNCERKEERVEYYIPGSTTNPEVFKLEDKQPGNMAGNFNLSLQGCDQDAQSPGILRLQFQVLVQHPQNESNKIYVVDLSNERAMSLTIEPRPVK
Excerpt: as §1

B1: IgG 58 (antibody, V domains shown)
VH: EVQLVESGGGLVQPGGSLRLSCAASGFNVYSYSIHWVRQAPGKGLEWVASISSSSGSTSYADSVKGRFTISADTSKNTAYLQMNSLRAEDTAVYYCARYYWDPWQYASYSYLAFDYWGQGTLVTVSS
VL: MTQSPSSLSASVGDRVTITCRASQSVSSAVAWYQQKPGKAPKLLIYSASSLYSGVPSRFSGSRSGTDFTLTISSLQPEDFATYYCQQTYSGPITFGQGTKVEIKR
notes: Mouse cleaved-CDCP1-specific antibody; also called Ab58; IgG 0058
- Kd [1]: 0.8 nM
- EC50 [2]: 6.9 nM

B2: c-CDCP1 Cut 3 C-terminal fragment (CTF) of the ectodomain (receptor)
chain: FVPGCFVCLESRTCSSNLTLTSGSKHKISFLCDDLTRLWMNVEKTISCTDHRYCQRKSYSLQVPSDILHLPVELHDFSWKLLVPKDRLSLVLVPAQKLQQHTHEKPCNTSFSYLVASAIPSQDLYFGSFCPGGSIKQIQVKQNISVTLRTFAPSFQQEASRQGLTVSFIPYFKEEGVFTVTPDTKSKVYLRTPNWDRGLPSLTSVSWNISVPRDQVACLTFFKERSGVVCQTGRAFMIIQEQRTRAEEIFSLDEDVLPKPSFHHHSFWVNISNCSPTSGKQLDLLFSVTLTPRTVDLT
notes: Tag for Ni-NTA purification not described; also called CTF (Cut 3)
- binding result [3]: binds

B3: c-CDCP1 Cut 2 C-terminal fragment (CTF) of the ectodomain (receptor)
chain: T5 sequence 2
notes: Tag for Ni-NTA purification not described; also called CTF (Cut 2)
- binding result [4]: binds

B4: IgG102 (antibody, V domains shown)
VH: EVQLVESGGGLVQPGGSLRLSCAASGFDFSSYSIHWVRQAPGKGLEWVASSYPYSGSTYYADSVKGRFTISADTSKNTAYLQMNSLRAEDTAVYYCARQSHSYYSHTWWVSYGMDYWGQGTLVTVSS
VL: DIQMTQSPSSLSASVGDRVTITCRASQSVSSAVAWYQQKPGKAPKLLIYSASSLYSGVPSRFSGSRSGTDFTLTISSLQPEDFATYYCQQSGQRPITFGQGTKVEIK
- binding result (c-CDCP1-Fc (Cut 2)): binds

B5: c-CDCP1 Cut 1 C-terminal fragment (CTF) of the ectodomain (receptor)
chain: QSRKFVPGCFVCLESRTCSSNLTLTSGSKHKISFLCDDLTRLWMNVEKTISCTDHRYCQRKSYSLQVPSDILHLPVELHDFSWKLLVPKDRLSLVLVPAQKLQQHTHEKPCNTSFSYLVASAIPSQDLYFGSFCPGGSIKQIQVKQNISVTLRTFAPSFQQEASRQGLTVSFIPYFKEEGVFTVTPDTKSKVYLRTPNWDRGLPSLTSVSWNISVPRDQVACLTFFKERSGVVCQTGRAFMIIQEQRTRAEEIFSLDEDVLPKPSFHHHSFWVNISNCSPTSGKQLDLLFSVTLTPRTVDLT
notes: Tag for Ni-NTA purification not described; also called CTF (Cut 1)
- binding result [5]: binds
